Results: US20130131322A1

Biological target: EGFR on A431 cells (human) (UniProt P00533)
Assay: cell-based or functional assay

- inhibition of EGFR phosphorylation in A431 cells: 40%
Substance: anti-EGFR antibody (clone 225: the original antibody of cetuximab, Calbiochem)
